B1: library; numbered along this chain (parent)
chain: MRKPRAAVGSGHRKQAASQEGRQKHAKNNSQAKPSACDGLARQPEEVVLQASVSSYHLFRDVAEVTAFRGSLLSWYDQEKRDLPWRRRAEDEMDLDRRAYAVWVSEVMLQQTQVATVINYYTGWMQKWPTLQDLASASLEEVNQLWAGLGYYSRGRRLQEGARKVVEELGGHMPRTAETLQQLLPGVGRYTAGAIASIAFGQATGVVDGNVARVLCRVRAIGADPSSTLVSQQLWGLAQQLVDPARPGDFNQAAMELGATVCTPQRPLCSQCPVESLCRARQRVEQEQLLASGSLSGSPDVEECAPNTGQCHLCLPPSEPWDQTLGVVNFPRKASRKPPREESSATCVLEQPGALGAQILLVQRPNSGLLAGLWEFPSVTWEPSEQLQRKALLQELQRWAGPLPATHLRHLGEVVHTFSHIKLTYQVYGLALEGQTPVTTVPPGARWLTQEEFHTAAVSTAMKKVFRVYQGQQPGTCMGSKRSQVSSPCSRKKPRMGQQVLDNFFRSHISTDAHSLNSAAQ

Variants of: B1
Assay: 8OG:A repair function score (normalized; synonymous = 0, nonsense = -1) (normalized log-likelihood score); higher = more repair activity (WT-like)
Conditions: with 8OG:A DNA repair reporter (GFP) in HEK-293 MUTYH KO cells
Experimental: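 Saturation mutagenesis (NNN codon scan) of the MUTYH cDNA (521-aa nuclear isoform NM_001048174.1 / NP_001041639), stably expressed under doxycycline induction in HEK-293 MUTYH knockout cells. Cells were co-transfected with an 8OG:A-bearing GFP repair reporter plus mCherry and sorted 72 h later into GFP+ and GFP− bins, three replicates per tile. The Rosace log2 enrichment (GFP+ vs GFP−) was converted per tile to a normalized function score with synonymous variants centered at 0 and nonsense variants (codons 1-471) at -1; low-abundance variants were removed.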

| Variant | 8OG:A repair function score |
| --- | --- |
| MRKPRAAVGSGHRKQAASQEGRQKHAKNNSQAKPSACDGLARQPEEVVLQASVSSYHLFRDVAEVTAFRGSLLSWYDQEKRDLPWRRRAEDEMDLDRRAYAVWVSEVMLQMTQVATVINYYTGWMQKWPTLQDLASASLEEVNQLWAGLGYYSRGRRLQEGARKVVEELGGHMPRTAETLQQLLPGVGRYTAGAIASIAFGQATGVVDGNVARVLCRVRAIGADPSSTLVSQQLWGLAQQLVDPARPGDFNQAAMELGATVCTPQRPLCSQCPVESLCRARQRVEQEQLLASGSLSGSPDVEECAPNTGQCHLCLPPSEPWDQTLGVVNFPRKASRKPPREESSATCVLEQPGALGAQILLVQRPNSGLLAGLWEFPSVTWEPSEQLQRKALLQELQRWAGPLPATHLRHLGEVVHTFSHIKLTYQVYGLALEGQTPVTTVPPGARWLTQEEFHTAAVSTAMKKVFRVYQGQQPGTCMGSKRSQVSSPCSRKKPRMGQQVLDNFFRSHISTDAHSLNSAAQ [Q111M] | -1.12 |
| MRKPRAAVGSGHRKQAASQEGRQKHAKNNSQAKPSACDGLARQPEEVVLQASVSSYHLFRDVAEVTAFRGSLLSWYDQEKRDLPWRRRAEDEMDLDRRAYAVWVSEVMLQQTQVATVINYYTGWMQKWPTLQDLASASLEEVNQLWAGLGYYSRGRRLQEGARKVVEELGGHMPRTAETLQQLLPGVGRYTAGAIASIAFGQATGVVDGNVARVLCRVRAIGADPSSTLVSQQLWGLAQQLVDPARPGDFNQAAMELGATVCTPQRPLCSQCPVESLCRARQRVEQEQLLASGSLSGSPDVEECAPNTGQCHLCLPPSEPWDQTLGVVNFPRKASRKPPREESSATCVLEQPGALGAQILLVQRPNSGLLAGLWEFPSVTWEESEQLQRKALLQELQRWAGPLPATHLRHLGEVVHTFSHIKLTYQVYGLALEGQTPVTTVPPGARWLTQEEFHTAAVSTAMKKVFRVYQGQQPGTCMGSKRSQVSSPCSRKKPRMGQQVLDNFFRSHISTDAHSLNSAAQ [P383E] | 0.0397 |
| MRKPRAAVGSGHRKQAASQEGRQKHAKNNSQAKPSACDGLARQPEEVVLQASVSSYHLFRDVAEVTAFRGSLLSWYDQEKRDLPWRRRAEDEMDLDRRAYAVWVSEVMLQQTQVATVINYYTGWMQKWPTLQDLASASLEEVNQLWAGLGYYSRGRRLQEGARKVVEELGGHMPRTAETLQQLLPGVGRYTAGAIASICFGQATGVVDGNVARVLCRVRAIGADPSSTLVSQQLWGLAQQLVDPARPGDFNQAAMELGATVCTPQRPLCSQCPVESLCRARQRVEQEQLLASGSLSGSPDVEECAPNTGQCHLCLPPSEPWDQTLGVVNFPRKASRKPPREESSATCVLEQPGALGAQILLVQRPNSGLLAGLWEFPSVTWEPSEQLQRKALLQELQRWAGPLPATHLRHLGEVVHTFSHIKLTYQVYGLALEGQTPVTTVPPGARWLTQEEFHTAAVSTAMKKVFRVYQGQQPGTCMGSKRSQVSSPCSRKKPRMGQQVLDNFFRSHISTDAHSLNSAAQ [A199C] | 0.000923 |
| MRKPRAAVGSGHRKQAASQEGRQKHAKNNSQAKPSACDGLARQPEEVVLQASVSSYHLFRDVAEVTAFRGSLLSWYDQEKRDLPWRRRAEDEMDLDRRAYAVWVSEVMLQQTQVATVINYYTGWMQKWPTLQDLASASLEEVNQLWAGLGYYSRGRRLQEGARKVVEELGGHMPRTAETLQQLLPGVGRYTAGAIASIAFGQATGVVKGNVARVLCRVRAIGADPSSTLVSQQLWGLAQQLVDPARPGDFNQAAMELGATVCTPQRPLCSQCPVESLCRARQRVEQEQLLASGSLSGSPDVEECAPNTGQCHLCLPPSEPWDQTLGVVNFPRKASRKPPREESSATCVLEQPGALGAQILLVQRPNSGLLAGLWEFPSVTWEPSEQLQRKALLQELQRWAGPLPATHLRHLGEVVHTFSHIKLTYQVYGLALEGQTPVTTVPPGARWLTQEEFHTAAVSTAMKKVFRVYQGQQPGTCMGSKRSQVSSPCSRKKPRMGQQVLDNFFRSHISTDAHSLNSAAQ [D208K] | -0.994 |
| MRKPRAAVGSGHRKQAASQEGRQKHAKNNSQAKPSACDGLARQPEEVVLQASVSSYHLFRDVACVTAFRGSLLSWYDQEKRDLPWRRRAEDEMDLDRRAYAVWVSEVMLQQTQVATVINYYTGWMQKWPTLQDLASASLEEVNQLWAGLGYYSRGRRLQEGARKVVEELGGHMPRTAETLQQLLPGVGRYTAGAIASIAFGQATGVVDGNVARVLCRVRAIGADPSSTLVSQQLWGLAQQLVDPARPGDFNQAAMELGATVCTPQRPLCSQCPVESLCRARQRVEQEQLLASGSLSGSPDVEECAPNTGQCHLCLPPSEPWDQTLGVVNFPRKASRKPPREESSATCVLEQPGALGAQILLVQRPNSGLLAGLWEFPSVTWEPSEQLQRKALLQELQRWAGPLPATHLRHLGEVVHTFSHIKLTYQVYGLALEGQTPVTTVPPGARWLTQEEFHTAAVSTAMKKVFRVYQGQQPGTCMGSKRSQVSSPCSRKKPRMGQQVLDNFFRSHISTDAHSLNSAAQ [E64C] | -0.0897 |
| MRKPRAAVGSGHRKQAASQEGRQKHAKNNSQAKPSACDGLARQPEEVVLQASVSSYHLFRDVAEVTAFRGSLLSWYDQEKRDLPWRRRAEDEMDLDRRAYAVWVSEVMLQQTQVATVINYYTGWMQKWPTLQDLASASLEEVNQLWAGLGYYSRGRRLQEGARKVVEELGGHMPRTAETLQQLLPGVGRYTAGAIASIAFGQATGVVDGNKARVLCRVRAIGADPSSTLVSQQLWGLAQQLVDPARPGDFNQAAMELGATVCTPQRPLCSQCPVESLCRARQRVEQEQLLASGSLSGSPDVEECAPNTGQCHLCLPPSEPWDQTLGVVNFPRKASRKPPREESSATCVLEQPGALGAQILLVQRPNSGLLAGLWEFPSVTWEPSEQLQRKALLQELQRWAGPLPATHLRHLGEVVHTFSHIKLTYQVYGLALEGQTPVTTVPPGARWLTQEEFHTAAVSTAMKKVFRVYQGQQPGTCMGSKRSQVSSPCSRKKPRMGQQVLDNFFRSHISTDAHSLNSAAQ [V211K] | -1 |
